Results taken from paper PMC6952535.

Target: 6xHis-hSTAT3_(136-705) (human) (UniProt P40763)
Test: ITC

Sequence of UniProt P40763 (P40763 136-705): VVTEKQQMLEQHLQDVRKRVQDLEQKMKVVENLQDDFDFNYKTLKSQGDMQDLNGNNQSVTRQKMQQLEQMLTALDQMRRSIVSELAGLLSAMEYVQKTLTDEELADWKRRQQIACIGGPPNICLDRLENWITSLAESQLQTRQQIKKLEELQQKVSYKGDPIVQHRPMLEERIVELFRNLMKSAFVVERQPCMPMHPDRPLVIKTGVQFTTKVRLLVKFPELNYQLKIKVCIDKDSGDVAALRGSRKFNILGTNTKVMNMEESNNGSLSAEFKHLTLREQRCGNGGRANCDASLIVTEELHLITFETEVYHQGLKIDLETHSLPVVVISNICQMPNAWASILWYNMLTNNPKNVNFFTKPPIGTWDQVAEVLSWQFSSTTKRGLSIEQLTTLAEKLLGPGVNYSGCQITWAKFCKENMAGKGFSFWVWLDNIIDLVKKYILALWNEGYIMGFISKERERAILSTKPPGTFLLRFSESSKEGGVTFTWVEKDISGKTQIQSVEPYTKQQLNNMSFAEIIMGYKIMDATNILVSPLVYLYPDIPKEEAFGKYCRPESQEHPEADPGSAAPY

Row | Substance | Kd [µM]
1 | SarA phospho-peptide (ten residues spanning the YxxQ motif, phosphorylated at Y167) | 0.143
2 | gp130 phosphopeptide containing YxxQ (phosphorylated at Y767) | 2.29
